Molecular target: T1, CD3 epsilon homodimer protein (UniProt P07766 23-126)
T1 construct: also called CD3 (CD3 epsilon)
Experiment: SPR Biacore T200, antibody over immobilised CD3e homodimer;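 note: CD3 epsilon homodimer amine-coupled on a CM4 chip, run at 25 °C in HBS-EP+, Z = bound amount of each single-residue H chain variant over that of the parent antibody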

T1 sequence (P07766 23-126): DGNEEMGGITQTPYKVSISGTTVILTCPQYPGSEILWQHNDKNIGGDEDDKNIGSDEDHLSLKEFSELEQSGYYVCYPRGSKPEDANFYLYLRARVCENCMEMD

| Binder | ratio of amounts bound (Z=Y/X vs CE115HA000) |
| --- | --- |
| CE115HA000 H35A one-arm antibody (antibody, human IgG1, kappa, L234A L235A, N297A, name in Kabat numbering, one-arm antibody) heavy: QVQLVESGGGVVQPGRSLRLSCAASGFTFSNAWMAWVRQAPGKGLEWVAQIKAKSNNYATYYAESVKGRFTISRDDSKNSLYLQMNSLKTEDTAVYYCRYVHYGAYYGVDAWGQGTTVTVSSASTKGPSVFPLAPSSKSTSGGTAALGCLVKDYFPEPVTVSWNSGALTSGVHTFPAVLQSSGLYSLSSVVTVPSSSLGTQTYICNVNHKPSNTKVDKKVEPKSCDKTHTCPPCPAPEAAGGPSVFLFPPKPKDTLMISRTPEVTCVVVDVSHEDPEVKFNWYVDGVEVHNAKTKPREEQYASTYRVVSVLTVLHQDWLNGKEYKCKVSNKALPAPIEKTISKAKGQPREPQVYTLPPSRCELTKNQVSLSCAVKGFYPSDIAVEWESNGQPENNYKTTPPVLDSDGSFFLVSKLTVDKSRWQQGNVFSCSVMHEALHNHYTQKSLSLSPDYKDDDDK EPKSSDKTHTCPPCPAPELLGGPSVFLFPPKPKDTLMISRTPEVTCVVVDVSHEDPEVKFNWYVDGVEVHNAKTKPREEQYNSTYRVVSVLTVLHQDWLNGKEYKCKVSNKALPAPIEKTISKAKGQPREPQVCTLPPSRDELTKNQVSLWCLVKGFYPSDIAVEWESNGQPENNYKTTPPVLDSDGSFFLYSKLTVDKSRWQQGNVFSCSVMHEALHNRYTQKSLSLSP light: DIVMTQSPLSLPVTPGEPASISCRSSQSLVHSNRNTYLHWYQQKPGQAPRLLIYKVSNRFSGVPDRFSGSGSGTDFTLKISRVEAEDVGVYYCGQGTQVPYTFGQGTKLEIKRTVAAPSVFIFPPSDEQLKSGTASVVCLLNNFYPREAKVQWKVDNALQSGNSQESVTEQDSKDSTYSLSSTLTLSKADYEKHKVYACEVTHQGLSSPVTKSFNRGEC | 0.17 |
| CE115HA000 A32Y one-arm antibody (antibody, human IgG1, kappa, L234A L235A, N297A, name in Kabat numbering, one-arm antibody) heavy: QVQLVESGGGVVQPGRSLRLSCAASGFTFSNYWMHWVRQAPGKGLEWVAQIKAKSNNYATYYAESVKGRFTISRDDSKNSLYLQMNSLKTEDTAVYYCRYVHYGAYYGVDAWGQGTTVTVSSASTKGPSVFPLAPSSKSTSGGTAALGCLVKDYFPEPVTVSWNSGALTSGVHTFPAVLQSSGLYSLSSVVTVPSSSLGTQTYICNVNHKPSNTKVDKKVEPKSCDKTHTCPPCPAPEAAGGPSVFLFPPKPKDTLMISRTPEVTCVVVDVSHEDPEVKFNWYVDGVEVHNAKTKPREEQYASTYRVVSVLTVLHQDWLNGKEYKCKVSNKALPAPIEKTISKAKGQPREPQVYTLPPSRCELTKNQVSLSCAVKGFYPSDIAVEWESNGQPENNYKTTPPVLDSDGSFFLVSKLTVDKSRWQQGNVFSCSVMHEALHNHYTQKSLSLSPDYKDDDDK EPKSSDKTHTCPPCPAPELLGGPSVFLFPPKPKDTLMISRTPEVTCVVVDVSHEDPEVKFNWYVDGVEVHNAKTKPREEQYNSTYRVVSVLTVLHQDWLNGKEYKCKVSNKALPAPIEKTISKAKGQPREPQVCTLPPSRDELTKNQVSLWCLVKGFYPSDIAVEWESNGQPENNYKTTPPVLDSDGSFFLYSKLTVDKSRWQQGNVFSCSVMHEALHNRYTQKSLSLSP light: DIVMTQSPLSLPVTPGEPASISCRSSQSLVHSNRNTYLHWYQQKPGQAPRLLIYKVSNRFSGVPDRFSGSGSGTDFTLKISRVEAEDVGVYYCGQGTQVPYTFGQGTKLEIKRTVAAPSVFIFPPSDEQLKSGTASVVCLLNNFYPREAKVQWKVDNALQSGNSQESVTEQDSKDSTYSLSSTLTLSKADYEKHKVYACEVTHQGLSSPVTKSFNRGEC | 0.33 |
| CE115HA000 A52aE one-arm antibody (antibody, human IgG1, kappa, L234A L235A, N297A, name in Kabat numbering, one-arm antibody) heavy: QVQLVESGGGVVQPGRSLRLSCAASGFTFSNAWMHWVRQAPGKGLEWVAQIKEKSNNYATYYAESVKGRFTISRDDSKNSLYLQMNSLKTEDTAVYYCRYVHYGAYYGVDAWGQGTTVTVSSASTKGPSVFPLAPSSKSTSGGTAALGCLVKDYFPEPVTVSWNSGALTSGVHTFPAVLQSSGLYSLSSVVTVPSSSLGTQTYICNVNHKPSNTKVDKKVEPKSCDKTHTCPPCPAPEAAGGPSVFLFPPKPKDTLMISRTPEVTCVVVDVSHEDPEVKFNWYVDGVEVHNAKTKPREEQYASTYRVVSVLTVLHQDWLNGKEYKCKVSNKALPAPIEKTISKAKGQPREPQVYTLPPSRCELTKNQVSLSCAVKGFYPSDIAVEWESNGQPENNYKTTPPVLDSDGSFFLVSKLTVDKSRWQQGNVFSCSVMHEALHNHYTQKSLSLSPDYKDDDDK EPKSSDKTHTCPPCPAPELLGGPSVFLFPPKPKDTLMISRTPEVTCVVVDVSHEDPEVKFNWYVDGVEVHNAKTKPREEQYNSTYRVVSVLTVLHQDWLNGKEYKCKVSNKALPAPIEKTISKAKGQPREPQVCTLPPSRDELTKNQVSLWCLVKGFYPSDIAVEWESNGQPENNYKTTPPVLDSDGSFFLYSKLTVDKSRWQQGNVFSCSVMHEALHNRYTQKSLSLSP light: DIVMTQSPLSLPVTPGEPASISCRSSQSLVHSNRNTYLHWYQQKPGQAPRLLIYKVSNRFSGVPDRFSGSGSGTDFTLKISRVEAEDVGVYYCGQGTQVPYTFGQGTKLEIKRTVAAPSVFIFPPSDEQLKSGTASVVCLLNNFYPREAKVQWKVDNALQSGNSQESVTEQDSKDSTYSLSSTLTLSKADYEKHKVYACEVTHQGLSSPVTKSFNRGEC | 0.57 |
| CE115HA000 A52aP one-arm antibody (antibody, human IgG1, kappa, L234A L235A, N297A, name in Kabat numbering, one-arm antibody) heavy: QVQLVESGGGVVQPGRSLRLSCAASGFTFSNAWMHWVRQAPGKGLEWVAQIKPKSNNYATYYAESVKGRFTISRDDSKNSLYLQMNSLKTEDTAVYYCRYVHYGAYYGVDAWGQGTTVTVSSASTKGPSVFPLAPSSKSTSGGTAALGCLVKDYFPEPVTVSWNSGALTSGVHTFPAVLQSSGLYSLSSVVTVPSSSLGTQTYICNVNHKPSNTKVDKKVEPKSCDKTHTCPPCPAPEAAGGPSVFLFPPKPKDTLMISRTPEVTCVVVDVSHEDPEVKFNWYVDGVEVHNAKTKPREEQYASTYRVVSVLTVLHQDWLNGKEYKCKVSNKALPAPIEKTISKAKGQPREPQVYTLPPSRCELTKNQVSLSCAVKGFYPSDIAVEWESNGQPENNYKTTPPVLDSDGSFFLVSKLTVDKSRWQQGNVFSCSVMHEALHNHYTQKSLSLSPDYKDDDDK EPKSSDKTHTCPPCPAPELLGGPSVFLFPPKPKDTLMISRTPEVTCVVVDVSHEDPEVKFNWYVDGVEVHNAKTKPREEQYNSTYRVVSVLTVLHQDWLNGKEYKCKVSNKALPAPIEKTISKAKGQPREPQVCTLPPSRDELTKNQVSLWCLVKGFYPSDIAVEWESNGQPENNYKTTPPVLDSDGSFFLYSKLTVDKSRWQQGNVFSCSVMHEALHNRYTQKSLSLSP light: DIVMTQSPLSLPVTPGEPASISCRSSQSLVHSNRNTYLHWYQQKPGQAPRLLIYKVSNRFSGVPDRFSGSGSGTDFTLKISRVEAEDVGVYYCGQGTQVPYTFGQGTKLEIKRTVAAPSVFIFPPSDEQLKSGTASVVCLLNNFYPREAKVQWKVDNALQSGNSQESVTEQDSKDSTYSLSSTLTLSKADYEKHKVYACEVTHQGLSSPVTKSFNRGEC | 0.15 |
| CE115HA000 A52aG one-arm antibody (antibody, human IgG1, kappa, L234A L235A, N297A, name in Kabat numbering, one-arm antibody) heavy: QVQLVESGGGVVQPGRSLRLSCAASGFTFSNAWMHWVRQAPGKGLEWVAQIKGKSNNYATYYAESVKGRFTISRDDSKNSLYLQMNSLKTEDTAVYYCRYVHYGAYYGVDAWGQGTTVTVSSASTKGPSVFPLAPSSKSTSGGTAALGCLVKDYFPEPVTVSWNSGALTSGVHTFPAVLQSSGLYSLSSVVTVPSSSLGTQTYICNVNHKPSNTKVDKKVEPKSCDKTHTCPPCPAPEAAGGPSVFLFPPKPKDTLMISRTPEVTCVVVDVSHEDPEVKFNWYVDGVEVHNAKTKPREEQYASTYRVVSVLTVLHQDWLNGKEYKCKVSNKALPAPIEKTISKAKGQPREPQVYTLPPSRCELTKNQVSLSCAVKGFYPSDIAVEWESNGQPENNYKTTPPVLDSDGSFFLVSKLTVDKSRWQQGNVFSCSVMHEALHNHYTQKSLSLSPDYKDDDDK EPKSSDKTHTCPPCPAPELLGGPSVFLFPPKPKDTLMISRTPEVTCVVVDVSHEDPEVKFNWYVDGVEVHNAKTKPREEQYNSTYRVVSVLTVLHQDWLNGKEYKCKVSNKALPAPIEKTISKAKGQPREPQVCTLPPSRDELTKNQVSLWCLVKGFYPSDIAVEWESNGQPENNYKTTPPVLDSDGSFFLYSKLTVDKSRWQQGNVFSCSVMHEALHNRYTQKSLSLSP light: DIVMTQSPLSLPVTPGEPASISCRSSQSLVHSNRNTYLHWYQQKPGQAPRLLIYKVSNRFSGVPDRFSGSGSGTDFTLKISRVEAEDVGVYYCGQGTQVPYTFGQGTKLEIKRTVAAPSVFIFPPSDEQLKSGTASVVCLLNNFYPREAKVQWKVDNALQSGNSQESVTEQDSKDSTYSLSSTLTLSKADYEKHKVYACEVTHQGLSSPVTKSFNRGEC | 0.81 |
| CE115HA000 A52aD one-arm antibody (antibody, human IgG1, kappa, L234A L235A, N297A, name in Kabat numbering, one-arm antibody) heavy: QVQLVESGGGVVQPGRSLRLSCAASGFTFSNAWMHWVRQAPGKGLEWVAQIKDKSNNYATYYAESVKGRFTISRDDSKNSLYLQMNSLKTEDTAVYYCRYVHYGAYYGVDAWGQGTTVTVSSASTKGPSVFPLAPSSKSTSGGTAALGCLVKDYFPEPVTVSWNSGALTSGVHTFPAVLQSSGLYSLSSVVTVPSSSLGTQTYICNVNHKPSNTKVDKKVEPKSCDKTHTCPPCPAPEAAGGPSVFLFPPKPKDTLMISRTPEVTCVVVDVSHEDPEVKFNWYVDGVEVHNAKTKPREEQYASTYRVVSVLTVLHQDWLNGKEYKCKVSNKALPAPIEKTISKAKGQPREPQVYTLPPSRCELTKNQVSLSCAVKGFYPSDIAVEWESNGQPENNYKTTPPVLDSDGSFFLVSKLTVDKSRWQQGNVFSCSVMHEALHNHYTQKSLSLSPDYKDDDDK EPKSSDKTHTCPPCPAPELLGGPSVFLFPPKPKDTLMISRTPEVTCVVVDVSHEDPEVKFNWYVDGVEVHNAKTKPREEQYNSTYRVVSVLTVLHQDWLNGKEYKCKVSNKALPAPIEKTISKAKGQPREPQVCTLPPSRDELTKNQVSLWCLVKGFYPSDIAVEWESNGQPENNYKTTPPVLDSDGSFFLYSKLTVDKSRWQQGNVFSCSVMHEALHNRYTQKSLSLSP light: DIVMTQSPLSLPVTPGEPASISCRSSQSLVHSNRNTYLHWYQQKPGQAPRLLIYKVSNRFSGVPDRFSGSGSGTDFTLKISRVEAEDVGVYYCGQGTQVPYTFGQGTKLEIKRTVAAPSVFIFPPSDEQLKSGTASVVCLLNNFYPREAKVQWKVDNALQSGNSQESVTEQDSKDSTYSLSSTLTLSKADYEKHKVYACEVTHQGLSSPVTKSFNRGEC | 1.34 |
